Where two headings read alike, the source gives them in different places.
T1: CLuc-EXO70H1 (A. thaliana, UniProt Q8VY27 1-636)
T1 sequence: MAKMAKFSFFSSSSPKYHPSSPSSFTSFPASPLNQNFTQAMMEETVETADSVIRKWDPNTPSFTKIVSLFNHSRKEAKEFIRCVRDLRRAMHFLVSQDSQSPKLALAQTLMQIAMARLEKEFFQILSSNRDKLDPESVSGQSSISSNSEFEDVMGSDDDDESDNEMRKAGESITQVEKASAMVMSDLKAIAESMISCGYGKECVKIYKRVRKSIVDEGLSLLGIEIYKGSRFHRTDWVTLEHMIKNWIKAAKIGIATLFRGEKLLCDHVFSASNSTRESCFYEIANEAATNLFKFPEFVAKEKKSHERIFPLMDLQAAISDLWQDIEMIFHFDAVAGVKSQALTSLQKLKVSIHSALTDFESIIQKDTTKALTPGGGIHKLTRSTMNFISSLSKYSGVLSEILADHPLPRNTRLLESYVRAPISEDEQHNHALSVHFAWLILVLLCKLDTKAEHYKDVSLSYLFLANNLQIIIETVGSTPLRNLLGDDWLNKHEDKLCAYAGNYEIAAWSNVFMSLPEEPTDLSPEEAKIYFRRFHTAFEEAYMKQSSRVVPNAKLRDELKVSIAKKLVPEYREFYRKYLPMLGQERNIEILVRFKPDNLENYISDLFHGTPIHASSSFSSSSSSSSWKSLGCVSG

T2: CLuc-EXO70H4 (A. thaliana, UniProt Q9SF51 1-628)
T2 sequence: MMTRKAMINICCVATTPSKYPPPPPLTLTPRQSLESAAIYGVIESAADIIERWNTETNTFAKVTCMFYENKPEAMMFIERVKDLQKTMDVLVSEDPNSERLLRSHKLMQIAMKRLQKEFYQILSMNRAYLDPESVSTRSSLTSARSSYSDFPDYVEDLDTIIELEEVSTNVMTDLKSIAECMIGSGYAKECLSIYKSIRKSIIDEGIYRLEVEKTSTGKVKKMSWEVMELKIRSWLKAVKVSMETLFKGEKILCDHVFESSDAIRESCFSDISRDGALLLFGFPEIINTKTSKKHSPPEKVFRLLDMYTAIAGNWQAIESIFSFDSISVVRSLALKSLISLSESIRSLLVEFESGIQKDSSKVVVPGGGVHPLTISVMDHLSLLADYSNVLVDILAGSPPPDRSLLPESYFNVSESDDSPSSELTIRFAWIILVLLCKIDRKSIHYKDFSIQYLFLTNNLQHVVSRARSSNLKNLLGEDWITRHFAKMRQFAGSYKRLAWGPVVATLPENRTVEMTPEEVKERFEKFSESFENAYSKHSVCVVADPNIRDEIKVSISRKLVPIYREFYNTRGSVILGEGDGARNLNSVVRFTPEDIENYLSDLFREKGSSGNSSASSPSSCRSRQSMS

T3: CLuc-EXO70B2 (A. thaliana, UniProt Q9LMJ4 1-599)
T3 sequence: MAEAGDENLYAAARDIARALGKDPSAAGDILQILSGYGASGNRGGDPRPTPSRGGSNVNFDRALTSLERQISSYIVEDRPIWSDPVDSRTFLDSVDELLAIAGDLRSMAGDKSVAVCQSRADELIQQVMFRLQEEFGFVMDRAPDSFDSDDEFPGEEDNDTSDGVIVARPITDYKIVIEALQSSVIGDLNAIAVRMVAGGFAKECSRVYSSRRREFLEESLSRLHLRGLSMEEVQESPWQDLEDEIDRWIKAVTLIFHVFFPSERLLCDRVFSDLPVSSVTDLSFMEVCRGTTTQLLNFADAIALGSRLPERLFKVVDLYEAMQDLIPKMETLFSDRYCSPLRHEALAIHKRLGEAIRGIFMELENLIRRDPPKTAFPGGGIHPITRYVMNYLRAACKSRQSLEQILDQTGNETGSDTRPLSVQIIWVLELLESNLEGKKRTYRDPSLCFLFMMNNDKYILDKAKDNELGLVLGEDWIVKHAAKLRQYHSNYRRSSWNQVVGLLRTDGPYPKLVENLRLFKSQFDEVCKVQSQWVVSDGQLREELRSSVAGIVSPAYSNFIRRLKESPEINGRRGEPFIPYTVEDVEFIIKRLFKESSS

T4: CLuc-EXO70H2 (A. thaliana, UniProt O80625 1-637)
T4 sequence: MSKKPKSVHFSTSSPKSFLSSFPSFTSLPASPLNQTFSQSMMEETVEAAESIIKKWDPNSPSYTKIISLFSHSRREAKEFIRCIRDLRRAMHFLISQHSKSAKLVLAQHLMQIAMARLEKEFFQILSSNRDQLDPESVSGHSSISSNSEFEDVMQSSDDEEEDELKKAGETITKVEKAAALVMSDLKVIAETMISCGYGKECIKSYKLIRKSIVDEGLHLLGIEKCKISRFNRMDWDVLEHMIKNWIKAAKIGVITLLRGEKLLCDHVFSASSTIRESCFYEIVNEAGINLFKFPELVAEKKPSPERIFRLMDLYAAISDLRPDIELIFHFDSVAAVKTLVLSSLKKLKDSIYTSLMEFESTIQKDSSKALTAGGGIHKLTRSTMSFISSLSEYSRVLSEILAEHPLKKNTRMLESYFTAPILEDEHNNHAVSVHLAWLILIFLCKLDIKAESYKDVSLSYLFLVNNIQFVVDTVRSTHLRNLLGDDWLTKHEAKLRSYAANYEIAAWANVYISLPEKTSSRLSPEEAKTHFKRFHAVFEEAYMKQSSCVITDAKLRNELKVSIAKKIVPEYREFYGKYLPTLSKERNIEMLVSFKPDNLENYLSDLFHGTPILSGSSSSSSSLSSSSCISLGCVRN


Experiments:
Test in all cases: split reporter
[1] = target: T1, CLuc-EXO70H1
[2] = target: T2, CLuc-EXO70H4
[3] = target: T3, CLuc-EXO70B2
[4] = target: CLuc-EXO70H7 (A. thaliana); conditions: scale: relative to the calmodulin positive control
[5] = target: T1, CLuc-EXO70H1; remark: listed apart in the source
[6] = target: T4, CLuc-EXO70H2
[7] = target: T2, CLuc-EXO70H4; remark: listed apart in the source

Binder	relative luminescence [1]	relative luminescence [2]	relative luminescence [3]	relative luminescence [4]	relative luminescence [5]	relative luminescence [6]	relative luminescence [7]
MLO12-NLuc (natural protein) MAIKERSLEETPTWAVAVVCFVLLFISIMIEYFLHFIGHWFKKKHKKALSEALEKVKAELMLLGFISLLLVVLQTPVSEICIPRNIAATWHPCSNHQEIAKYGKDYIDDGRKILEDFDSNDFYSPRRNLATKGYDKCAEKGKVALVSAYGIHQLHIFIFVLAVFHVLYCIITYALGKTKMKKWKSWERETKTIEYQYANDPERFRFARDTSFGRRHLNIWSKSTFTLWITCFFRQFFGSVTKVDYLTLRHGFIMAHLPAGSAARFDFQKYIERSLEQDFTVVVGISPLIWCIAVLFILTNTHGWDSYLWLPFLPLIVILIVGAKLQMIISKLGLRIQEKGDVVKGAPVVEPGDDLFWFGRPRFILFLIHLVLFTNAFQLAFFVWSTYEFTLKNCFHHKTEDIAIRITMGVLIQVLCSYITLPLYALVTQMGTSMRPTIFNDRVANALKKWHHTAKKQTKHGHSGSNTPHSSRPTTPTHGMSPVHLLHNYNNRSLDQQTSFTASPSPPRFSDYSGQGHGHQHFFDPESQNHSYQREITDSEFSNSHHPQVDMASPVREEKEIVEHVKVDLSEFTFKK	~0.37 relative to the calmodulin positive control						
MLO2-NLuc (natural protein) MADQVKERTLEETSTWAVAVVCFVLLFISIVLEHSIHKIGTWFKKKHKQALFEALEKVKAELMLLGFISLLLTIGQTPISNICISQKVASTMHPCSAAEEAKKYGKKDAGKKDDGDGDKPGRRLLLELAESYIHRRSLATKGYDKCAEKGKVAFVSAYGIHQLHIFIFVLAVVHVVYCIVTYAFGKIKMRTWKSWEEETKTIEYQYSNDPERFRFARDTSFGRRHLNFWSKTRVTLWIVCFFRQFFGSVTKVDYLALRHGFIMAHFAPGNESRFDFRKYIQRSLEKDFKTVVEISPVIWFVAVLFLLTNSYGLRSYLWLPFIPLVVILIVGTKLEVIITKLGLRIQEKGDVVRGAPVVQPGDDLFWFGKPRFILFLIHLVLFTNAFQLAFFAWSTYEFNLNNCFHESTADVVIRLVVGAVVQILCSYVTLPLYALVTQMGSKMKPTVFNDRVATALKKWHHTAKNETKHGRHSGSNTPFSSRPTTPTHGSSPIHLLHNFNNRSVENYPSSPSPRYSGHGHHEHQFWDPESQHQEAETSTHHSLAHESSEPVLASVELPPIRTSKSLRDFSFKK	~0.39 relative to the calmodulin positive control	~0.4 relative to the calmodulin positive control	~0.56 relative to the calmodulin positive control				
MLO6-NLuc (natural protein) MADQVKEKTLEETSTWAVAVVCFVLLLISIVIEKLIHKIGSWFKKKNKKALYEALEKVKAELMLMGFISLLLTIGQGYISNICIPKNIAASMHPCSASEEARKYGKKDVPKEDEEENLRRKLLQLVDSLIPRRSLATKGYDKCAEKGKVAFVSAYGMHQLHIFIFVLAVCHVIYCIVTYALGKTKMRRWKKWEEETKTIEYQYSHDPERFRFARDTSFGRRHLSFWSKSTITLWIVCFFRQFFRSVTKVDYLTLRHGFIMAHLAPGSDARFDFRKYIQRSLEEDFKTIVEINPVIWFIAVLFLLTNTNGLNSYLWLPFIPFIVILIVGTKLQVIITKLGLRIQEKGDVVKGTPLVQPGDHFFWFGRPRFILFLIHLVLFTNAFQLAFFVWSTYEFGLKNCFHESRVDVIIRISIGLLVQILCSYVTLPLYALVTQMGSKMKPTVFNERVATALKSWHHTAKKNIKHGRTSESTTPFSSRPTTPTHGSSPIHLLRNAPHKRSRSVDESFANSFSPRNSDFDSWDPESQHETAETSNSNHRSRFGEEESEKKFVSSSVELPPGPGQIRTQHEISTISLRDFSFKR		~0.67 relative to the calmodulin positive control		> 0.24	> 0.24 relative to the calmodulin positive control	> 0.24 relative to the calmodulin positive control	> 0.24 relative to the calmodulin positive control
